From publication PMC6540902, “A simple, robust, universal assay for real-time enzyme monitoring by signalling changes in nucleoside phosphate anion concentration using a europium(III)-based anion receptor” (Chemical Science, 2019) come the findings set out here.

Broadly, the Km is the concentration of substrate that gives half-maximal velocity.

Substrate in the data set: CC(C)C[C@H](NC(=O)[C@H](CO)NC(=O)[C@H](C)NC(=O)[C@H](CCCNC(=N)N)NC(=O)[C@H](CCCNC(=N)N)NC(=O)[C@@H](N)CC(C)C)C(=O)NCC(=O)O
Kind of data set: Michaelis-Menten substrate titration (Km) by real-time Eu(III) luminescence. Format: biochemical, Homo sapiens. The note with it: ATP, Mg2+.

B1: Aurora A kinase (AurA) (Homo sapiens) (protein)
chain: MDRSKENCISGPVKATAPVGGPKRVLVTQQFPCQNPLPVNSGQAQRVLCPSNSSQRIPLQAQKLVSSHKPVQNQKQKQLQATSVPHPVSRPLNNTQKSKQPLPSAPENNPEEELASKQKNEESKKRQWALEDFEIGRPLGKGKFGNVYLAREKQSKFILALKVLFKAQLEKAGVEHQLRREVEIQSHLRHPNILRLYGYFHDATRVYLILEYAPLGTVYRELQKLSKFDEQRTATYITELANALSYCHSKRVIHRDIKPENLLLGSAGELKIADFGWSVHAPSSRRTTLCGTLDYLPPEMIEGRMHDEKVDLWSLGVLCYEFLVGKPPFEANTYQETYKRISRVEFTFPDFVTEGARDLISRLLKHNPSQRPMLREVLEHPWITANSSKPSNCQNKESASKQS
On to B1, for which the Km turned out to be 176 ± 29 µM.
